B1: WT 1-4 (antibody, V domains shown)
VH: QVQLQQSGTELAKPGASVKFSCKASDYTFSTYWMYWIKQRPGQGLEWIGYINPSSGHTEYNQRFKDKATLTADKSSSTAYMQLNSLTSEDSAVYYCARKYYGPFAMDYWGQGTSVTVSS
VL: EIFLTQSPAIMSASPGEKVTMTCSASTTVSYAHWYQQKSGTSPKRWLYDSSKIASGIPVRFSGSGSGTSYSLTISSMEAEDAATYYCQNWSTNPYTFGGGTKLEIKR
B2: Mutation 1-47 (antibody, V domains shown)
VH: B1 VH with D26G, S30T, I51L, S55T, E59D, R63K, K99R, A105G
VL: B1 VL with A32V, S50T, N89Q, N93Q
B3: Mutation 1-54 (antibody, V domains shown)
VH: B1 VH with D26G, T31S, I51L, E59D, R63K, K99R, Y101F, A105G
VL: B1 VL with A32V, S50T, N89Q, N93Q
B4: Mutation 1-10 (antibody, V domains shown)
VH: B1 VH with D26G, S30T, T31S, S55T, E59D, A105G
VL: B1 VL with T27S, A32V, S50T, I53L, N89Q, N93Q
B5: Mutation 1-40 (antibody, V domains shown)
VH: B1 VH with D26G, I51L, E59D, K99R, Y101F, A105G
VL: B1 VL with T27S, A32V, S50T, N89Q
B6: WT 1-2 (antibody, V domains shown)
VH: B1 VH with S30T, T31S, K99R, Y101W
VL: B1 VL with T27S, I53L, T92S, N93Q
B7: Mutation 1-32 (antibody, V domains shown)
VH: B1 VH with D26G, I51L, E59D, Y101W, A105G
VL: B1 VL with T27S, A32V, S50T, N89Q, T92S
B8: Mutation 1-24 (antibody, V domains shown)
VH: B1 VH with D26G, S55T, E59D, R63K, K99R, Y101F, A105G
VL: B1 VL with T27S, A32V, S50T, N89Q, T92S
B9: WT 1-1 (antibody, V domains shown)
VH: B1 VH with S55T, R63K, K99R
VL: B1 VL with T27S, T28S, L47I
B10: Mutation 1-1 (antibody, V domains shown)
VH: B1 VH with D26G, S55T, E59D, R63K, K99R, A105G
VL: B1 VL with T27S, T28S, A32V, L47I, S50T, N89Q
B11: Mutation 1-44 (antibody, V domains shown)
VH: B1 VH with D26G, E59D, A105G
VL: B1 VL with T27S, T28S, A32V, L47I, S50T, N89Q
B12: Mutation 1-55 (antibody, V domains shown)
VH: B1 VH with D26G, I51L, E59D, R63K, A105G
VL: B1 VL with A32V, L47I, S50T, I53L, N89Q
notes: T0002 combination 56 prints L/L
B13: Mutation 1-9 (antibody, V domains shown)
VH: B1 VH with D26G, T31S, E59D, Y101F, A105G
VL: B1 VL with T27S, T28S, A32V, L47I, S50T, N89Q, N93Q
B14: Mutation 1-28 (antibody, V domains shown)
VH: B1 VH with D26G, I51L, S55T, E59D, A105G
VL: B1 VL with A32V, S50T, N89Q, T92S
B15: Mutation 1-4 (antibody, V domains shown)
VH: B1 VH with D26G, E59D, A105G
VL: B1 VL with A32V, S50T, N89Q
B16: Mutation 1-34 (antibody, V domains shown)
VH: B1 VH with D26G, S30T, T31S, E59D, R63K, A105G
VL: B1 VL with A32V, S50T, I53L, N89Q, T92S
B17: Mutation 1-36 (antibody, V domains shown)
VH: B1 VH with D26G, E59D, K99R, Y101W, A105G
VL: B1 VL with T27S, A32V, S50T, N89Q
B18: Mutation 1-25 (antibody, V domains shown)
VH: B1 VH with D26G, T31S, E59D, K99R, A105G
VL: B1 VL with T28S, A32V, L47I, S50T, N89Q, T92S
B19: Mutation 1-18 (antibody, V domains shown)
VH: B1 VH with D26G, S30T, E59D, K99R, Y101F, A105G
VL: B1 VL with A32V, S50T, I53L, N89Q, T92S, N93Q
B20: Mutation 1-12 (antibody, V domains shown)
VH: B1 VH with D26G, I51L, S55T, E59D, K99R, Y101F, A105G
VL: B1 VL with A32V, S50T, N89Q, N93Q
B21: Mutation 1-53 (antibody, V domains shown)
VH: B1 VH with D26G, T31S, S55T, E59D, A105G
VL: B1 VL with A32V, L47I, S50T, I53L, N89Q
B22: Mutation 1-22 (antibody, V domains shown)
VH: B1 VH with D26G, S30T, I51L, E59D, R63K, A105G
VL: B1 VL with A32V, S50T, I53L, N89Q, T92S, N93Q
B23: Mutation 1-16 (antibody, V domains shown)
VH: B1 VH with D26G, E59D, R63K, A105G
VL: B1 VL with A32V, S50T, N89Q, N93Q
B24: Mutation 1-8 (antibody, V domains shown)
VH: B1 VH with D26G, S55T, E59D, R63K, K99R, Y101W, A105G
VL: B1 VL with A32V, S50T, N89Q, N93Q

In general, Kd refers to a measure of binding affinity in units of concentration. The koff is a measure of how fast the partners let go of each other. Usually kon stands for the rate constant with which the complex forms.

Changes are numbered by the printed parent chain.

T1 sequence (P19429 whole entry): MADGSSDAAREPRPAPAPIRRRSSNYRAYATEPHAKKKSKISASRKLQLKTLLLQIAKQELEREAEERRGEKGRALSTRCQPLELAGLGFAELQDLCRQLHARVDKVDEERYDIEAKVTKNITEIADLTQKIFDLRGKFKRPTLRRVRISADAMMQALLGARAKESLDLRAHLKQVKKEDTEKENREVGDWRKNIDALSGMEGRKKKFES

This assay concerns the target T1, cTnI quality control product recombinant protein (human, UniProt P19429 1-210, limits assumed).
T1 construct: the assay paragraphs only say cTnI; also called cardiac troponin I; cTnI antigen
Put plainly: AMC biosensor, antibody on sensor. The protocol:
Operating process: it is equilibrated in Buffer 1 (PBST) for 60 s, the antibody is immobilized in an antibody solution for 300 s, incubated in Buffer 2 (PBST) for 180 s, bound in antigen solution for 420 s, dissociated in the Buffer 2 for 1200 s, 10 mM of GLY solution with pH 1.69 and Buffer 3 are used for sensor regeneration, and data is output.
On to B1, for which the dissociation constant Kd was determined as 31.8 nM, the koff was found to be 0.000922 s⁻¹ and the kon was found to be 29000 M⁻¹ s⁻¹.
On to B2, for which the equilibrium dissociation constant (Kd) was 2.03 nM, the off-rate (koff) is 6.94e-05 s⁻¹ and the association rate constant (kon) was 34100 M⁻¹ s⁻¹.
Regarding B3, the dissociation constant Kd worked out at 1.63 nM, the koff was 7.3e-05 s⁻¹ and the kon amounted to 44900 M⁻¹ s⁻¹.
Taken in the same sequence, the figures for B4 were 4.19 nM, 0.000155 s⁻¹ and 37000 M⁻¹ s⁻¹.
The corresponding values for B5 are 4.16 nM, 0.000138 s⁻¹ and 33200 M⁻¹ s⁻¹.
As for B6, the Kd is 28.5 nM, the koff amounted to 0.000741 s⁻¹ and the association rate constant (kon) amounted to 26000 M⁻¹ s⁻¹.
As for B7, the Kd was 0.548 nM, the koff amounted to 1.78e-05 s⁻¹ and the kon amounted to 32400 M⁻¹ s⁻¹.
Taken in the same sequence, the figures for B8 were 9.29 nM, 0.000173 s⁻¹ and 18600 M⁻¹ s⁻¹.
B9: the Kd was 68.4 nM, the koff was found to be 0.00165 s⁻¹ and the kon worked out at 24100 M⁻¹ s⁻¹.
On to B10, for which the Kd turned out to be 7.73 nM, the dissociation rate constant (koff) amounted to 0.000118 s⁻¹ and the kon was 15300 M⁻¹ s⁻¹.
Taken in the same sequence, the figures for B11 were 4.18 nM, 6.9e-05 s⁻¹ and 16500 M⁻¹ s⁻¹.
For B12, the Kd stood at 2.07 nM, the off-rate (koff) worked out at 6.36e-05 s⁻¹ and the kon is 30700 M⁻¹ s⁻¹.
On to B13, for which the Kd amounted to 0.813 nM, the off-rate (koff) came to 2.45e-05 s⁻¹ and the kon worked out at 30100 M⁻¹ s⁻¹.
As for B14, the Kd is 0.941 nM, the off-rate constant (koff) is 1.39e-05 s⁻¹ and the kon turned out to be 14800 M⁻¹ s⁻¹.
For B15, the Kd is 5.72 nM, the koff is 0.000211 s⁻¹ and the kon is 36900 M⁻¹ s⁻¹.
On to B16, for which the Kd was found to be 0.404 nM and the off-rate (koff) came to 1.92e-05 s⁻¹.
Turning to B17, the Kd came to 5.49 nM, the koff stood at 9.5e-05 s⁻¹ and the on-rate (kon) stood at 17300 M⁻¹ s⁻¹.
Consider B18, for which the Kd is 1.7 nM, the koff was determined as 6.15e-05 s⁻¹ and the kon was 36200 M⁻¹ s⁻¹.
Taken in the same sequence, the figures for B19 were 2.3 nM, 8.41e-05 s⁻¹ and 36500 M⁻¹ s⁻¹.
For B20, the Kd amounted to 3.29 nM, the koff is 6.88e-05 s⁻¹ and the association rate constant (kon) came out at 20900 M⁻¹ s⁻¹.
Regarding B21, the Kd worked out at 8 nM, the koff was 0.0004 s⁻¹ and the kon stood at 50000 M⁻¹ s⁻¹.
The corresponding values for B22 are 1.73 nM, 8.25e-05 s⁻¹ and 47800 M⁻¹ s⁻¹.
For B23, the equilibrium dissociation constant (Kd) amounted to 1.39 nM, the dissociation rate constant (koff) was found to be 6.64e-05 s⁻¹ and the kon was 47700 M⁻¹ s⁻¹.
Turning to B24, the dissociation constant (Kd) amounted to 9.35 nM, the off-rate constant (koff) worked out at 0.000105 s⁻¹ and the kon was 11200 M⁻¹ s⁻¹.

The record behind these values is patent publication US20220033483A1 (GUAGNDONG FEIPENG BIOLOGICAL, published 2022).
